# Laboratory results taken from the nanobody polyreactivity screen of Harvey et al. (2022).
# Test: yeast display, Sf9 membrane polyspecificity reagent, FACS + sequencing; frameworks hold sequencing errors
# Method in brief: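 Using colony PCR, genes from sorted yeast display clones were amplified, then sequenced on MiSeq at 2 × 250 and filtered by CDR length. The clones had been stained with 10% biotinylated, detergent-solubilized Sf9 membrane reagent for 1 hour at 4 °C and sorted by FACS into low and high (top ~1%) gates on anti-HA and streptavidin fluorescence. Polyreactivity labels come from the gate of origin.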
row,Sequence,polyreactivity (PSR sort gate)
1,QVQLVESGGGLVQAGGILRLSCAASGSIFPNYAMGWYRQAPGKEREFVAAISSSGGSTYYADYVKGRFTISRENAKNTVYLQMNSLKPDDTAVYYCAAAYVGYYYSRGFDYWGQGTQVTVSS,high polyreactivity
2,QVQLVESGGGLVQAGGILRLSCAASGSIFQYNAKGWYIQEPGKEREFVAAISGSGTTTYYADSVKGRFTISRDNAKNTVYLQMNSLKPEDTAVYYCAKAIRHYPDVAYNAWGQGSQVTVSS,high polyreactivity
3,QVQLVESGGGLVQAGGILRLSCAASGSIFRNYAMGWYRQAPGKERELVAAISVRGGSTYYADSVKGRFTISRDNTKNTVYLQMNSLKPEDTAVYYCNARTYYPVYYRDGGYWGQGTQVTVSS,high polyreactivity
4,QVQLVESGGGLVQAGGILRLSCAASGSIFSGYAMGWYRQAPGKERELVAAITWRAASTYYADSVKGRFTISRDNAKNTVYLQMNSLKPEDTAVYYCAKEGWPKPAFYYWGQGTQVTVSS,low polyreactivity
5,QVQLVESGGGLVQAGGILRLSCAASGSIFSPYVMGWYRQAPGKERELVAAISTGGSTYYADSVKGRFTISRDNAKNTVYLQMNSLKPEDTAVYYCATDGWKQSAYDYWGQGTQVTVSS,low polyreactivity
6,QVQLVESGGGLVQAGGILRLSCAASGSTFFSNTKGWYRQAPGKERELVAAITDSGTSTYYADSVKGRFTISRDIAKNTVYLQMNSLKPEDTAVYYGDAYPSGWYDYWGHGTQVTVSS,low polyreactivity
7,QVQLVESGGGLVQAGGILRLSCAASGSTFQSNAMGWYRQAPGKERELVAAISSSAGTTFYADSVKGRFTISRDNAKNTVYLQMNSLKPEDTAVYYCAKKDFYFAPSPGYYRSRDYWGQGTQVTVSS,low polyreactivity
8,QVQLVESGGGLVQAGGILRLSCAASGSTIEFNAMGWYRPAPGKERELVAAISGSGASTYYADSVKGRFTISRDNAKNTVYLQMNSLTPEDTAVYYCNADSLYYDYQTVVVQALDYWGQGTQVTVSS,low polyreactivity
9,QVQLVESGGGLVQAGGILRLSCAASGSTLGFNAMGWYRLAPGKEREFDAGISASGSSTYYADSVKGRFTISRDNAKNTVYLQMNSLKPEDTAVYYCYAPRGSRRSYRRTEFYYWGQGTQVTVSS,high polyreactivity
10,QVQLVESGGGLVQAGGILRLSCAASGSTTYYYAMGWYRQQPGKDRELVATISTTGAGTYYADSVKGRFTISRDNAKNTVYLQMNSLKPEDTAVYYCAKDGKASRDDAEYDYWGQGTQVTVSS,low polyreactivity
11,QVQLVESGGGLVQAGGILRLSCAASGYNFKYYAMGWYRQAPGKERELVAAISRSGGSTYYADSVKGRFTISRDNAKNTVYLQMNSLTPEDTAVYYCAAYTHYAYGHDYWGQGTQVTVSS,high polyreactivity
12,QVQLVESGGGLVQAGGILRLSCAAYGRTSSYTMGWDIQANGQERELVAAITRRGGSTYYADSVKGRFTISRDHAKNSVYLQMNSLKPEDTAVYYCAASYRGEYDYWGQGTQVTVSS,high polyreactivity
13,QVQLVESGGGLVQAGGILRLSCADSGRTFGSNAMGWYRQAPGKERELVAAISGRTDSTYYADSVKGRFTISRDNAKNTVYLQMNSLKPEDTAVYYCAADSADVLYYYIRYNYWGQGTQVTVSS,low polyreactivity
14,QVQLVESGGGLVQAGGILRLSCAPYGSIFSQNAMGWYRQAPGKERELVAAISSSGTRTYYADSVKARFTISRDNAQNTVYLQMNSLKPEDTAVYYSNKVHFLPRYFLRSDYWGQGTQVTVSS,high polyreactivity
15,QVQLVESGGGLVQAGGILRLSCASSVTFFMGWYRQAPGKEWELVAGISISDVSTYYADSVKGRFTISRDNAKNTVYLQMNSLKPEDTAVYYCAAEFYPTTGFDYWGQGTQVTVSS,low polyreactivity
16,QVQLVESGGGLVQAGGILRLSCASYGSTFALYAMGWYRPAPGKERELVATITGSGGITYYADSVKGRFTISRDNAKNTVYLQMNSLKPVDTAVYYCAADPYTLYWYYWYGTSGFDYWGQGTQVTVSS,low polyreactivity
17,QVQLVESGGGLVQAGGILRLSCDASGFTFYYYTMGWYRQAPGKERELVAAISKSGGTTYYADSVKGRFTISRDNAKNTVYLQMNSLKPEDTAVYYCAAKPWVWVYARYGKHPSYDYWGQGTQVTVSS,high polyreactivity
18,QVQLVESGGGLVQAGGILRLSCDASGITFSTYAMGWYRQAPGKERELVAAITRSGGTYYADSVKGSFTISRDNAKNTVYLQMNSLKPEDTAVYYCAASYTVFGVRRYGYWGQGTQVTVSS,high polyreactivity
19,QVQLVESGGGLVQAGGILRLSCDASGLIFGPYTMGWYRQAPGKERELVAAISYGGVSTYYADSVKGRFTISRDNAKNTVYLQMNSLKPEDTAVYYCARGDSTRVIRPSAREYDYWGQGTQVTVSS,low polyreactivity
20,QVQLVESGGGLVQAGGKLRLSCAASGSIFSDYTMGWYRQAPGKERELVAVITLSSGSTYYADSVKGRFTISRDNAKNTVYLQMNSLKPEDTAVYYCAADGWYYFGSGVFEYDYWGQGTQVTVSS,low polyreactivity
21,QVQLVESGGGLVQAGGNLLLSCAASGFNFVDYAMGWSRQAPGKERELVASIDRSDGSTYYADSVKGRFTFSRDNAKNTVYLLMNSLKPEDTAVYYCAAADQLYSISTGDYWGQGTQVTVSL,low polyreactivity
22,QVQLVESGGGLVQAGGNLRLSCAASGNIFYVYAMGWYRQAPGKERELVAAITRSGGRTYYADSVKGRFTISRDNAKNTVYLQMNSLKPEETAVYYCAADRGVTRQKMDYWGQGTQVTVSS,low polyreactivity

row,Sequence,polyreactivity (PSR sort gate)
1,QVQLVESGGGLVQAGGPLRLSCAASGYLFSYYAMGWSRQAPGKERELVATIDWGGGSTYYADSVKGRFTISRDNANNTVYLQLNSLKPEDTAVYYCSKDYYINKYGYRYDSWGQGTQVTVSS,low polyreactivity
2,QVQLVESGGGLVQAGGRLLLSCAASGFTFYTYAMGWYRQAPGKERELVADISSGGSTNYADSVKGRFTISRDNAKNTVYLQMNSLKPEDTAVYYCSADYYFLDWYDYWGQGTQVTVSS,low polyreactivity
3,QVQLVESGGGLVQAGGRLRISCAASGAIFGEYPMGWYSQAPGKERELVADITTGGNTNYADSVKGRFTITRDNAKNTVYVHMNSLKPEDTAVYYCIAYGNTYGYWWFGYWGQGTQVNVSS,low polyreactivity
4,QVQLVESGGGLVQAGGRLRISCAASGRIFPYNAMGWYIQAPGKERELVAAINWSGGSTYYADSVKGRFTISRDNAKNTVYLQMNSLKPEDTAVYYCAVKTVRSSSRNYWGQGTQVTVSS,high polyreactivity
5,QVQLVESGGGLVQAGGRLRISCAASGSIFEGNGMGWYRQAPGKQREFVAAITNRGGSTYYADSVKGRFTISRDNAKNTVYVQMISLKPEDTAVFYCAADWTTNPDYQQSYFVSYEYNYWGHGTQVTVSS,low polyreactivity
6,QVQLVESGGGLVQAGGRLRISCAATGSTSVRNAMGWSRQGPGKESELVAGISRGGGITYYADSVKGRFTISRDNAKNTVYLQMNILKTEDTAVYYCAAVYYVDYPDGNYEYWGQGTQVTVSS,high polyreactivity
7,QVQLVESGGGLVQAGGRLRISCADSGSTFQFYALGWYRQAPGKERQLVASIRVRSGTTYYADSVKGRFTISRENAKNTVYLQMTSLKPEDTAVYYCAAGRPFYGRKYDYWGQGTQVTVSS,high polyreactivity
8,QVQLVESGGGLVQAGGRLRLICAASGFTFGGNVMGWYRQAPGKERELVAAISSSGGSTYYADSVKGRFTISRDNAKNTVYLQMNSLKPEDTAVYYCAKYAVFYQYRYYHWGQGTQVTVSS,high polyreactivity
9,QVQLVESGGGLVQAGGRLRLICAASGRIFYRNAMGWYRQAPGKERELVAAISYSGGRTYYADSVKGRFTISRDIAKYTVYLQMNRLKPEDTAVYYCAVYGYHEGGYWGQVTQVTVSS,high polyreactivity
10,QVQLVESGGGLVQAGGRLRLICAASGRTFVVNAMGWYRQAPGQERELVAAITRRAGITYYADSVKGRFTISRDNAKNTVYLQMNSLKPEDTAVYYCAADRSYFPDTRTTYGYNYWGQGTQVTVSS,low polyreactivity
11,QVQLVESGGGLVQAGGRLRLICAASGSTFYYNALGWYRQAPGKERELVAGISRSGGSTYYADSVKGRFTISRDNAKNTVYLQMNSLKPEDTAVYYCAAKSYAYRWYDYWGQGTQVTVSS,high polyreactivity
12,QVQLVESGGGLVQAGGRLRLICAASGSTLYSYAMGWYRQAPGKEREFVAAISRRGGSTYYADSVKGRFTISRDNAKNTVYLQMNSLKPEDTAVYYCAARDSSYHWYGYWGQGTQVTVSS,high polyreactivity
13,QVQLVESGGGLVQAGGRLRLICAASGYTFPLYAMGWYRPAPGKERELVADINIGGASTYYADSVKGRFTISRDNAKNTVELQMNSLKPEDPAVYYCAKEYYDGYFPTFDYDYWGQGTQVTVSS,low polyreactivity
14,QVQLVESGGGLVQAGGRLRLICSASGRIIKDNAMGWYRQAPGKERELVADISSSGGSTYYADSVKGRFTISRDNAKNTVYLQMNSLKPEDTAVYYFAKYRYPSRLYSFPLGYDYWGQGTQVTLSS,high polyreactivity
15,QVQLVESGGGLVQAGGRLRLRCAASGIIFTAYVMGWYRQAPGKERELVADITSGDGSTYYADSVKGRFTISRDNAKNTVYLQMNSLKPEDTAVYYCAADYGQLVFDSYRREYDYWGQGTQVTVSS,low polyreactivity
16,QVQLVESGGGLVQAGGRLRLSCAAAGRTFVLYVMGWYRQAPRKEREFVADINAGGGSTYYADSVKGRFTMSRDNAKNTVYLQMNSLKAEDTAVYYCAASYVRGWKHSLDDYWGQGTQVTVAS,low polyreactivity
17,QVQLVESGGGLVQAGGRLRLSCAACGIIFLLYAMGWYRQAPGKERELVAAITNGGRTNYADSVQGRFTISRDNAKNTVYLQMNSRKPEDTALYYCNAVLSVPDYTLFDYWGQGTQVTVSS,low polyreactivity
18,QVQLVESGGGLVQAGGRLRLSCAASGFIFAKYAMGWYRQAPGKERELVAAITSSGVSTYYADSVKGRFTISRDNAKNTVYLQMNSLKPADTAVYYCNARERYSYWGQGTQVTVSS,high polyreactivity
19,QVQLVESGGGLVQAGGRLRLSCAASGFIFTDNGMGWYRQAPGKERELVAAINSDGSTYYADSVKGRFTISRDNAKNTVYLQMNSLKPEATAVYYCAVDGSITEIYLPGYGYGYWGQGTQVTVSS,low polyreactivity
20,QVQLVESGGGLVQAGGRLRLSCAASGFPFAVYAMGWYRQAPGKERELVATITSAGSTYYADSVKGRFTISRDTAKNTVYLQRNSLKPEDNEVYYCAAAGTYYRGDYGYWGQGTQVTVSS,low polyreactivity
21,QVQLVESGGGLVQAGGRLRLSCAASGFTFNSYVMGWYRQAPGKERELVAAITRSGDRTYYADSVKGRFTISRDNAKNTVYLQMNSLKPEDTAVYYCAATWSINYYGWYYYWGQGTQVTVSS,high polyreactivity
